Experimental data from PMC10889842.

Biological target: StBIN2 (Brassinolide insensitive 2 of potato), fused to nLUC (Solanum tuberosum (potato))
Assay: split reporter (BiFC, NanoBiT); luciferase complementation in infiltrated tobacco leaves; LUC enzyme activity detected with a dual luciferase reporter assay kit (Vazyme); three biological repeats

LUC enzyme activity, fold over the negative control | Substance
> 5 fold | StSnRK2.2, fused to cLUC (natural protein)
5 fold | StCCJ9 (a homolog of peroxidase AtPER12), fused to cLUC (enzyme)
